A short description of this data set: soluble on expression in E. coli; label from the status in PepcDB or PDB records.
“MRVAIALAKDDATRVYPGPFGHAPRYAIYEAGPSGELVLLEIRENPYAKAHGEEKHAKMRELLRDVDLKVGARFGHKGSLGAFPLADRVEVGPVSLEEALARLKERSSA”: the “soluble on expression in E. coli” value was “soluble”.

Consider “RGKDITVWFQRLLDRMTDFFSSLSGRRKVCSKPRFRVRRTTNPAAKKSGTDPKIRETKTSIDEILDKIRISGYASLTAEEKRHLFDQSKRL”, for which the “soluble on expression in E. coli” value was “not soluble”.

Take “MDIFSGLFTQVNNNNEEDLRVELQNMKPGEGVIRAEVGPSGVATFKKYFLQDGKLQFEIVKHPI”: the “soluble on expression in E. coli” value is “not soluble”.

For “MSIATQEFDAIVIGAGGAGLRASFQLSQSGFKTAVVSKVFPTRSHTVAAQGGIAAALGNIEFDDGLPSDDWKWHMYDTVKGSDYIGDQDAIEYMCEHAPQSIIELEHMGMPFSRLKNGKIYQRAFGGMSRNYDPANQAERTCAAADRTGHALLHTLYQGNLAHKTDFYTEWFAVDLVKADDGSIAGVIALCIETGETVFLKAKITILATGGAGRIYESSTNAYINTGDGMGLALRAGLPLQDMEFWQFHPTGIAGAGVLVTEGCRGEGGVLRNKDGERFMERYAPNAKDLACRDVVSRASQQEIMEGRGDTFSGTSCVWLDLTHLGEDVINERLPTVRELGRTFAGIDPVEKPIPVVPTCHYQMGGIPTNKHGQVITQVDGKDKVIGGLYAVGECASVSVHGANRLGSNSLLDLVVFGRAAGMHAEQSLKEGMPMKEVSQENIEKATARITKWDTSEQRGCKEKISELRKELQRVMQQYFSVFRQESTMKEGLDKLFNIRERLDNAVLEDNSRIFNMMRIEALELDNLVLTAIATAKLALERKESRGAHSRVDYPERDDKNWMKHTLYFLEGDRTSLRDVNMSPTKVKAFQPAERKY”, the “soluble on expression in E. coli” value is reported as “not soluble”.

Take “MSLAPPEGNPAAGKVAAGLCRTCHGLNGFARIPIAPHIGGEHPSYIRHQLEAFRSGTRQHEIMSVVAASLSDAQIADLSAWFAMQKIHVALKPGVDPHAAPEACALCHGADGVAVLEDAPNLAGENSVYLETQLKAFRTGKRTHEIMSPIAAELTDAEIRAAADWYAAVQLEIDEGHHHHHH”: the “soluble on expression in E. coli” value is “not soluble”.

Take “MEQKHNGIIFTAIPNESNEYYQPFYEDLIYFNECLNEKKSIADQLISLSVEEQDFHTSCFEYDDIWLRDVAPVVTNHLVKFKYRPNYLPDDQGRYLDQQFNKWLKKNDFEYVKSPLILDGGNLIWNKKDTVILTERIFDDNDDWTEEEIIEQLEWDLDVSRVIIIPAEEGDVLAHADGMVKFIDEHTMFISDFLGDHEFRYSVEEIIQEQMPEAEFIVVPSSYTEKGQYDQEIASAKGLYINMLESCDALYVPKFGLAKDEEVLRYIQQYTEKQVIQIHVGEISTMGGAMNCLTWYCPSHLLPSKMRRLKNQNEDFSMKKIFDWFLEHHHHHH”: the “soluble on expression in E. coli” value is “soluble”.

Consider “MGNEEEKMNADIFSYEGEGIQCVYDNKNWVMCIKNWKPNNDIENIRYLEVHHATDEQFVLLKGKAVLLAAVKADGACRIDVIPMEPYKVYNIPQGIWFNTITQKDTKLVYVQDAATTAENSEYCDMTQEELNEVKEKASACLD”, for which the “soluble on expression in E. coli” value was “not soluble”.

Take “MGSDKIHHHHHHMTRNGIGIRTAQVRSERLTGQIHVYDGVGKGKSQAALGVVLRSIGLGINAPNNSNRVLLLRFLKGPERDYDEDGAIAALQRGFPHLIDQVRTGRAEFFGPEEITTFDRSEAGRGWDVAKGAIASGLYSVVVLDEINPVLDLGLLSVDEVVGTLKSKPQELEIIATGRGAPQKLLDIADLHSEMKPLHHPKATELLMKGIEIYTGAGKGKSTSALGKALQAIGRGINHPGSTRVLIMQWLKGGSGYTEDAAIAALRQSYPEVVDHQRCGRDAIVWRNSRQELDYVEAERGWEIAKVAIASGLYKTIILDELNPTVDLELLPVEPIVQALLRKPRDTEIIITGRCQNQPAYFDLASIHSEVYCHKHYANQGVELKRGVDF”: the “soluble on expression in E. coli” value was “not soluble”.

Turning to “MENSIRYISEHPTDFNGLLSLYESLGWNSLKLTVNELERMCKQSWYAIYVFDDKRLVGMGRVISDGVITGIICGVGVLPKYQSSGIGKEIVKRLIQHCEQNKVIPQLMCVEKLQSYYESIGFEAFSIGMTKHIIR”, the “soluble on expression in E. coli” value was “not soluble”.

Take “SLIKEQASKLIKEIVNQISSLASISNFVLLFPRLDFKGLGYIPQLFFIFVKHDLIEENLSSVSSARAVIDFTNTKSEYVNFNITPRPEIVTINKGILSSIYDQTLIRALRETPFMNSALEFNSNFIKMQFRQRFNLGVYYSMYSPSVGFHEVVSISSLKLKDTVYLEEVEISLQVKICKTFNILTYKG”: the “soluble on expression in E. coli” value is reported as “soluble”.

For the sequence “MFKKLFGLGSKTNEETIVAPLTGAVKNIEEVPDPVFAGRMMGDGVAIDPTEGVVVSPVDGEIVQLFHTKHAIGIKAKNGTEILIHVGLETVKMEGEGFEAHVSEGQAVKAGDKLISFDLELIREKAKSTITPIVITNTDAAESIKTTVGVTATKGSTEVMKVTMK”, the “soluble on expression in E. coli” value is reported as “not soluble”.

For the sequence “MGSDKIHHHHHHMRLKISLLSPADSFEIDLNHSYHLASAIYRAIERADPSLSIELHKPDVPKFFTFSKLFIPKRKFRIEGEKMVSDCEEAYFFFSTLRNEVAASLVEGLLSKPEIRICGVDFIVSEVSVLPEREVKGREKFVTLSPIYASTSVGENGRRRIFDLYPKDSKFYEVILQNLVKKYVLYYKSAPENLDFHMKPLNVKAKRIRLKDTFHRCVEMVFKAEGSPELLDVGYKAGFGSKNSMGFGMVKVV”, the “soluble on expression in E. coli” value is reported as “not soluble”.

Take “MDYEKTLLMPKTDFPMRGGLPNKEPQIQEKWDAEDQYHKALEKNKGNETFILHDGPPYANGNLHMGHALNKILKDFIVRYKTMQGFYAPYVPGWDTHGLPIEQALTKKGVDRKKMSTAEFREKCKEFALEQIELQKKDFRRLGVRGDFNDPYITLKPEYEAAQIRIFGEMADKGLIYKGKKPVYWSPSSESSLAEAEIEYHDKRSASIYVAFNVKDDKGVVDADAKFIIWTTTPWTIPSNVAITVHPELKYGQYNVNGEKYIIAEALSDAVAEALDWDKASIKLEKEYTGKELEWVVAQHPFLDRESLVINGDHVTTDAGTGCVHTAPGHGEDDYIVGQQYELPVISPIDDKGVFTEEGGQFEGMFYDKANKAVTDLLTEKGALLKLDFITHSYPHDWRTKKPVIFRATPQWFASISKVRQDILDAIENTNFKVNWGKTRIYNMVRDRGEWVISRQRVWGVPLPVFYAENGEIIMTKETVNHVADLFAEHGSNIWFEREAKDLLPEGFTHPGSPNGTFTKETDIMDVWFDSGSSHRGVLETRPELSFPADMYLEGSDQYRGWFNSSITTSVATRGVSPYKFLLSHGFVMDGEGKKMSKSLGNVIVPDQVVKQKGADIARLWVSSTDYLADVRISDEILKQTSDDYRKIRNTLRFMLGNINDFNPDTDSIPESELLEVDRYLLNRLREFTASTINNYENFDYLNIYQEVQNFINVELSNFYLDYGKDILYIEQRDSHIRRSMQTVLYQILVDMTKLLAPILVHTAEEVWSHTPHVKEESVHLADMPKVVEVDQALLDKWRTFMNLRDDVNRALETARNEKVIGKSLEAKVTIASNDKFNASEFLTSFDALHQLFIVSQVKVVDKLDDQATAYEHGDIVIEHADGEKCERCWNYSEDLGAVDELTHLCPRCQQVVKSLV”: the “soluble on expression in E. coli” value is recorded as “soluble”.

Turning to “MGFTLKSLEFLQGVEPFRIDENHENEGASEEEEVLISAETDAGMSLMLEWKMRLSEDSDQCTTCNCPVDFGDRAVLLEHYQSLFHRTNTLRKARNMTVYTEEDFEGIENSENDLTSSQTTIGLESDDEEFDALLLPANRSFFIKNGSVFSVPRNILHVGERDVSSVTFLRPFDCAIFLWNGGHFAAAMFENDKMTVQKSFHRYVARAKQGGVQSQHDSGGKGAAKSAGAQLRRYNEQKMKEEIQSIMSSWKSRLQKTPLLFIRCAAYHRNIFFEADAGIETRDDRIRTIPFETKRPNIDEISDCWQRLQQVSEHGAESDFRAEMLEVREKRKKLARKVAGKKRKDGGMQMICEWSDDDENEDISKEKKTHHIKVRTIKKPEETVVQWPRLDDEWRQKTYNYVRQDSVEALKEHLASLNEDVTSEANDYLRNAKIPPNRSTFLHVSAANDARKCLKYFLEEVNCDSSTKDGAGLPPYSSSANSDVKSIFIDYRVKNETAGNWARTHIPEPKKKVELTEEQEREQAERKKEKKARQKEKEKLKKEIAKRDVEEMEERQKYVNMSEREKRALAVDRRLAGLPPILRCHQCGVQLPPTPFQYSHYNFCSTSCVAEHRKANPQ”, the “soluble on expression in E. coli” value is “not soluble”.

As to “GSHMLEDPLRVSPMIREFVQSIDDREWQTQLFALLQKQTYNQVEVDLFELMCKVLDQNLFSQVDWARNTVFFKDLKVDDQMKLLQHSWSDMLVLDHLHHRIHNGLPDETQLNNGQVFNLMSLGLLGVPQLGDYFNELQNKLQDLKFDMGDYVCMKFLILLNPSVRGIVNRKTVSEGHDNVQAALLDYTLTCYPSVNDKFRGLVNILPEIHAMAVRGEDHLYTKHCAGSAPTQTLLMEMLHAKR”, the “soluble on expression in E. coli” value is on record as “soluble”.

On to “MGSDKIHHHHHHMSKSVDETVFDFFELLLHEDDSAFSASPIKSQASATSAFDVSIKTEAQQLNDAILAEHERSKVDARASIVPEAQLARAKSIVTVSTKENAEPLVNKQALERLLAPVLKTQAPDIPKPTELNEQPLPLPKPVEAIAVTNVVKPADVESQQVEIISTAPETQVGFAPPSVTKDLQEVLDDEFQVLFFKVAGLTLAVPLVSLGGIVKVERINHIIGRPSWFLGVQTHREEQLNLVDTCAWVMPEKYTDKLAQSVNYQYLVLLEGSNWGLACESLLNAVKIHKSQVNWRSKAGKRPWLAGVVKEQMCGILHVQALVQMLDAGLGCQDSIG”, for which the “soluble on expression in E. coli” value is given as “not soluble”.

Turning to “MVSEEEEEEDGDAEETQDSEDDEEDEMEEDDDDSDYPEEMEDDDDDASYCTESSFRSHSTYSSTPGRRKPRVHRPRSPILEEKDIPPLEFPKSSEDLMVPNEHIMNVIAIYEVLRNFGTVLRLSPFRFEDFCAALVSQEQCTLMAEMHVVLLKAVLREEDTSNTTFGPADLKDSVNSTLYFIDGMTWPEVLRVYCES”, the “soluble on expression in E. coli” value is recorded as “not soluble”.

“MSLSDLITLAQLSQGYRYNSDSLILADFILKQGIKGAVFDVGAGCGIIGILLKKNIANLSLSLIDIQKENIELIEKNLKSNKIQGDIFHDDFNQFQIIKKFDFIVCNPPFYRQGAYKSEDQHKAISKFQEFLPLHSFLAKTNSMLKPNGTLYFCYEALALDEICFILKDMKMKITKLCFVHTHQSKKARLVLIQVKKGSKSPCEILPPFFVYENEILSKQMQEIHLRFRLKSYDEGHHHHHH”: the “soluble on expression in E. coli” value was “soluble”.

As for “MSSRAVSLLSRVISQNRGLASLRETVGERDASLLYEPKFQDSREFPEYNTINVRIQGHDFGSLEKYQAYIHKTAKRFGFTVVDSYAVAAQTQKAITYKPYSTVSESEIDMSTYDRVVRLSDVAAPRFSLFSQIIRAHIPIGVTMTVKEHEKVDEDSRYIPDLLLKQKQEELKALDDPNVRRNLGWE”, the “soluble on expression in E. coli” value is recorded as “not soluble”.

For the sequence “MGSDKIHHHHHHMSNQRYMMRGVSASKEDVHNAIKNIDKGIFPKAFCKIIPDILGGDPEYCNIMHADGAGTKSSLAYMYWKETGDLSVWKGIAQDALIMNIDDLLCVGAVDNILVSSTIGRNKLLIPGEVISAIINGTDELLAELREMGVGVYATGGETADVGDLVRTIIVDSTVTCRMKRSDVINNANIRPGDVIVGLASYGQATYEKEYNGGMGSNGLTSARHDVFGKYLAEKYPESYDAAVPEELVYSGGLKLTDTVEDSPIDAGKLVLSPTRTYAPVVKKLLDTLRPEIHGMVHCSGGAQTKVLHFVENVRVVKDNLFPVPPLFKTIQEQSGTDWAEMYKVFNMGHRLEVYLSPEHAEEVIAISESFGIPAQIVGRIEACDQTELIIKSEFGEFRY”, the “soluble on expression in E. coli” value was “not soluble”.

Take “GHMLDVAPPVITPRGTKIEPSAGAPFEAVRVARDVLHTSRTAALATLDPVSGYPYTTATNIGIEPDGTPFFFAAGLTLHARNMETDARISVTLAPFGKGDALTLPRLTLVGRADRIGPDEVPLAIARYIARYPKAKLYLSLPDTRLYRLRTEGVQINGGPARNASNITPADLRTDLSGAEELMAAAESEATRLNAIKGEASRLAVLAGAKTGRWKITSIDPDGIDLASASDLARLWFAERVETLKQFEKALAQLLKGS”: the “soluble on expression in E. coli” value is recorded as “soluble”.
